The results in this text go back to US20090270312A1, “HIV-I GP41 FUSION PEPTIDES FOR IMMUNOMODULALTION” (priority 2005, published 2009).

This experiment deals with TCR on the membrane of A2b T cells (rat). Nature of the experiment: acceptor-photobleaching FRET; distance is between Rho on the peptide and FITC on the anti-TCR antibody.

B1: FP (full length) conjugated to Rhodamine (peptide)
peptide: AVGIGALFLGFLGAAGSTMGARSMTLTVQARQL
modifications: not checked
Consider B1, for which the donor-acceptor distance inferred from FRET was less than 50 Å.
